Measurements taken from the supplement of paper PMC9112550, “Optimization of the antimicrobial peptide Bac7 by deep mutational scanning” (BMC Biology, 2022).

These sequences were tested on Escherichia coli TOP10 (assay: shrunken log2 fold change of peptide-encoding DNA abundance (4.5 h post-induction vs induction); higher = less antimicrobial activity (less host growth inhibition)). Settings: time post-induction: 4.5 h; library: site-saturation at positions 5, 18, 19, 20.
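Further: peptides expressed intracellularly from a pBAD plasmid library in pooled LB shake-flask culture, induced with 0.3% L-arabinose, DNA abundance read by NGS, three biological replicates, DESeq2 with apeglm shrinkage.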

Row | Sequence | shrunken log2 fold change
1 | RRIRDRPPRLPRPRPRPSVTPRP | 0.0709
2 | RRIRDRPPRLPRPRPRPSWMPRP | -0.166
3 | RRIRDRPPRLPRPRPRPSWWPRP | 0.276
4 | RRIRDRPPRLPRPRPRPSYDPRP | -0.175
5 | RRIRDRPPRLPRPRPRPSYRPRP | 0.0164
6 | RRIRDRPPRLPRPRPRPTCAPRP | 0.927
7 | RRIRDRPPRLPRPRPRPTDEPRP | 0.0606
8 | RRIRDRPPRLPRPRPRPTDLPRP | -0.0718
9 | RRIRDRPPRLPRPRPRPTEVPRP | 0.121
10 | RRIRDRPPRLPRPRPRPTFEPRP | 0.527
11 | RRIRDRPPRLPRPRPRPTFMPRP | -0.07
12 | RRIRDRPPRLPRPRPRPTFQPRP | 0.0497
13 | RRIRDRPPRLPRPRPRPTFSPRP | 0.743
14 | RRIRDRPPRLPRPRPRPTGEPRP | 0.119
15 | RRIRDRPPRLPRPRPRPTGKPRP | 0.0507
16 | RRIRDRPPRLPRPRPRPTGMPRP | -0.00655
17 | RRIRDRPPRLPRPRPRPTGRPRP | 0.134
18 | RRIRDRPPRLPRPRPRPTKHPRP | -0.0699
19 | RRIRDRPPRLPRPRPRPTKSPRP | 0.366
20 | RRIRDRPPRLPRPRPRPTPGPRP | 0.468
21 | RRIRDRPPRLPRPRPRPTRDPRP | 0.734
22 | RRIRDRPPRLPRPRPRPTRHPRP | 0.42
23 | RRIRDRPPRLPRPRPRPTSTPRP | 0.231
24 | RRIRDRPPRLPRPRPRPTTAPRP | 1.3
25 | RRIRDRPPRLPRPRPRPTVPPRP | -0.326

Row | Sequence | shrunken log2 fold change
26 | RRIRDRPPRLPRPRPRPTVTPRP | 0.853
27 | RRIRDRPPRLPRPRPRPTWVPRP | 0.323
28 | RRIRDRPPRLPRPRPRPTWYPRP | -0.238
29 | RRIRDRPPRLPRPRPRPTYDPRP | -0.208
30 | RRIRDRPPRLPRPRPRPTYYPRP | -0.204
31 | RRIRDRPPRLPRPRPRPVCIPRP | 0.0226
32 | RRIRDRPPRLPRPRPRPVDIPRP | -0.0995
33 | RRIRDRPPRLPRPRPRPVFLPRP | -0.208
34 | RRIRDRPPRLPRPRPRPVHMPRP | 0.111
35 | RRIRDRPPRLPRPRPRPVIIPRP | -0.316
36 | RRIRDRPPRLPRPRPRPVKFPRP | 0.284
37 | RRIRDRPPRLPRPRPRPVKHPRP | -0.0698
38 | RRIRDRPPRLPRPRPRPVPVPRP | -0.346
39 | RRIRDRPPRLPRPRPRPVQNPRP | 0.577
40 | RRIRDRPPRLPRPRPRPVQWPRP | 0.0426
41 | RRIRDRPPRLPRPRPRPVSPPRP | -0.134
42 | RRIRDRPPRLPRPRPRPVSTPRP | 0.0725
43 | RRIRDRPPRLPRPRPRPVTDPRP | 0.0222
44 | RRIRDRPPRLPRPRPRPVTQPRP | -0.0479
45 | RRIRDRPPRLPRPRPRPVTTPRP | 0.0135
46 | RRIRDRPPRLPRPRPRPVVCPRP | 0.26
47 | RRIRDRPPRLPRPRPRPVVFPRP | 0.457
48 | RRIRDRPPRLPRPRPRPVVGPRP | 0.642
49 | RRIRDRPPRLPRPRPRPVVLPRP | 0.268
50 | RRIRDRPPRLPRPRPRPVWYPRP | -0.134

Row | Sequence | shrunken log2 fold change
51 | RRIRDRPPRLPRPRPRPVYNPRP | -0.00379
52 | RRIRDRPPRLPRPRPRPVYRPRP | -0.0426
53 | RRIRDRPPRLPRPRPRPWDAPRP | 0.207
54 | RRIRDRPPRLPRPRPRPWDGPRP | -0.0761
55 | RRIRDRPPRLPRPRPRPWGTPRP | 0.0812
56 | RRIRDRPPRLPRPRPRPWHNPRP | -0.144
57 | RRIRDRPPRLPRPRPRPWKDPRP | -0.0129
58 | RRIRDRPPRLPRPRPRPWKQPRP | -0.0551
59 | RRIRDRPPRLPRPRPRPWLDPRP | 0.0593
60 | RRIRDRPPRLPRPRPRPWNSPRP | -0.237
61 | RRIRDRPPRLPRPRPRPWQNPRP | -0.0811
62 | RRIRDRPPRLPRPRPRPWRQPRP | -0.114
63 | RRIRDRPPRLPRPRPRPWSMPRP | -0.0018
64 | RRIRDRPPRLPRPRPRPWSPPRP | 0.127
65 | RRIRDRPPRLPRPRPRPWTDPRP | 0.023
66 | RRIRDRPPRLPRPRPRPWWHPRP | 0.133
67 | RRIRDRPPRLPRPRPRPYCVPRP | 0.00706
68 | RRIRDRPPRLPRPRPRPYDTPRP | -0.0872
69 | RRIRDRPPRLPRPRPRPYEMPRP | -0.000896
70 | RRIRDRPPRLPRPRPRPYFDPRP | -0.0823
71 | RRIRDRPPRLPRPRPRPYFVPRP | -0.362
72 | RRIRDRPPRLPRPRPRPYHPPRP | -0.449
73 | RRIRDRPPRLPRPRPRPYKEPRP | -0.372
74 | RRIRDRPPRLPRPRPRPYLMPRP | -0.187
75 | RRIRDRPPRLPRPRPRPYMFPRP | -0.244

Row | Sequence | shrunken log2 fold change
76 | RRIRDRPPRLPRPRPRPYMTPRP | -0.0206
77 | RRIRDRPPRLPRPRPRPYNCPRP | -0.0352
78 | RRIRDRPPRLPRPRPRPYNRPRP | -0.361
79 | RRIRDRPPRLPRPRPRPYQIPRP | -0.238
80 | RRIRDRPPRLPRPRPRPYQSPRP | -1.12
81 | RRIRDRPPRLPRPRPRPYRCPRP | -0.0315
82 | RRIRDRPPRLPRPRPRPYRPPRP | -0.00509
83 | RRIRDRPPRLPRPRPRPYSIPRP | 0.0125
84 | RRIRDRPPRLPRPRPRPYSSPRP | -0.152
85 | RRIRDRPPRLPRPRPRPYSYPRP | -0.0279
86 | RRIRDRPPRLPRPRPRPYTDPRP | 0.0446
87 | RRIRDRPPRLPRPRPRPYTGPRP | -1.03
88 | RRIRDRPPRLPRPRPRPYVIPRP | -0.116
89 | RRIRDRPPRLPRPRPRPYVKPRP | -0.313
90 | RRIRDRPPRLPRPRPRPYWHPRP | -0.921
91 | RRIRDRPPRLPRPRPRPYWPPRP | -0.547
92 | RRIRDRPPRLPRPRPRPYYMPRP | -0.399
93 | RRIRDRPPRLPRPRPRPYYRPRP | -0.163
94 | RRIRERPPRLPRPRPRPADGPRP | -0.0752
95 | RRIRERPPRLPRPRPRPADHPRP | -0.0618
96 | RRIRERPPRLPRPRPRPAEKPRP | -0.0431
97 | RRIRERPPRLPRPRPRPAERPRP | 0.104
98 | RRIRERPPRLPRPRPRPAGEPRP | 0.0657
99 | RRIRERPPRLPRPRPRPAGKPRP | -0.0958
100 | RRIRERPPRLPRPRPRPAGMPRP | -0.0133

Row | Sequence | shrunken log2 fold change
101 | RRIRERPPRLPRPRPRPAHHPRP | -0.338
102 | RRIRERPPRLPRPRPRPAHKPRP | -0.154
103 | RRIRERPPRLPRPRPRPAIEPRP | -0.136
104 | RRIRERPPRLPRPRPRPAIRPRP | -0.0312
105 | RRIRERPPRLPRPRPRPANFPRP | -0.163
106 | RRIRERPPRLPRPRPRPANKPRP | -0.632
107 | RRIRERPPRLPRPRPRPANSPRP | -0.0581
108 | RRIRERPPRLPRPRPRPAPHPRP | 0.704
109 | RRIRERPPRLPRPRPRPAPIPRP | 0.0258
110 | RRIRERPPRLPRPRPRPAPSPRP | 0.116
111 | RRIRERPPRLPRPRPRPAQAPRP | 0.073
112 | RRIRERPPRLPRPRPRPAQWPRP | 0.184
113 | RRIRERPPRLPRPRPRPARGPRP | 0.644
114 | RRIRERPPRLPRPRPRPARTPRP | 0.0417
115 | RRIRERPPRLPRPRPRPASFPRP | -0.285
116 | RRIRERPPRLPRPRPRPATAPRP | 0.147
117 | RRIRERPPRLPRPRPRPATIPRP | -0.105
118 | RRIRERPPRLPRPRPRPATVPRP | -0.2
119 | RRIRERPPRLPRPRPRPATWPRP | -0.014
120 | RRIRERPPRLPRPRPRPAVHPRP | -0.144
121 | RRIRERPPRLPRPRPRPAWIPRP | 0.121
122 | RRIRERPPRLPRPRPRPAYCPRP | 0.0672
123 | RRIRERPPRLPRPRPRPCCFPRP | -0.248
124 | RRIRERPPRLPRPRPRPCEMPRP | 0.118
125 | RRIRERPPRLPRPRPRPCETPRP | -0.336

Row | Sequence | shrunken log2 fold change
126 | RRIRERPPRLPRPRPRPCFAPRP | 0.0529
127 | RRIRERPPRLPRPRPRPCFEPRP | -0.258
128 | RRIRERPPRLPRPRPRPCGKPRP | -0.00192
129 | RRIRERPPRLPRPRPRPCGQPRP | -0.0982
130 | RRIRERPPRLPRPRPRPCHMPRP | 0.0597
131 | RRIRERPPRLPRPRPRPCKAPRP | -0.0137
132 | RRIRERPPRLPRPRPRPCKHPRP | -0.5
133 | RRIRERPPRLPRPRPRPCLYPRP | -0.489
134 | RRIRERPPRLPRPRPRPCNEPRP | -1.12
135 | RRIRERPPRLPRPRPRPCPVPRP | 0.0397
136 | RRIRERPPRLPRPRPRPCQAPRP | -0.0282
137 | RRIRERPPRLPRPRPRPCQYPRP | -0.138
138 | RRIRERPPRLPRPRPRPCRVPRP | -0.25
139 | RRIRERPPRLPRPRPRPCSKPRP | 0.2
140 | RRIRERPPRLPRPRPRPCSQPRP | -0.0493
141 | RRIRERPPRLPRPRPRPCSTPRP | -0.702
142 | RRIRERPPRLPRPRPRPCVVPRP | 0.0441
143 | RRIRERPPRLPRPRPRPDCCPRP | -0.157
144 | RRIRERPPRLPRPRPRPDCHPRP | -0.011
145 | RRIRERPPRLPRPRPRPDDHPRP | -0.284
146 | RRIRERPPRLPRPRPRPDDMPRP | -0.0903
147 | RRIRERPPRLPRPRPRPDEAPRP | 0.323
148 | RRIRERPPRLPRPRPRPDEMPRP | -0.0223
149 | RRIRERPPRLPRPRPRPDFFPRP | -0.279
150 | RRIRERPPRLPRPRPRPDFVPRP | 0.105
